Test results from patent US20240041987A1, “NOVEL BIOACTIVE PEPTIDE COMBINATIONS AND USES THEREOF” (COLZYX AB, priority 2020, published 2024).
Like-named read-outs stand apart in the source and are kept apart here.

Key:
microorganisms = conditions: cited from earlier work
wound healing = conditions: cited from earlier work
[1] = 25 ± 2° C./60% RH ± 5%, 1 month
[2] = 25 ± 2° C./60% RH ± 5%, 3 months

## FYLKTYRSQAPVLDAIRRLRLRGGS (FYL25) [collagen VI derived polypeptide]
microorganisms
  Antimicrobial activity?: Yes
Wound healing
  Wound healing activity?: have wound healing properties and Yes

## RKVAVFFSNTPTRASPQLRE (RKV20) [collagen VI derived polypeptide]
microorganisms
  Antimicrobial activity?: Yes

## FFLKDFSTKRQIIDAINKVVYKGGR (FFL25) [collagen VI derived polypeptide]
microorganisms
  Antimicrobial activity?: Yes
Wound healing
  Wound healing activity?: have wound healing properties and Yes

## VTTEIRFADSKRKSVLLDKIKNLQVALTSK (VTT30) [collagen VI derived polypeptide]
microorganisms
  Antimicrobial activity?: Yes
Wound healing
  Wound healing activity?: have wound healing properties and Yes

## DVNVFAIGVEDADEGALKEIASEPLNMHMFNL (DVN32) [collagen VI derived polypeptide]
microorganisms
  Antimicrobial activity?: No
Wound healing
  Wound healing activity?: No

## VVHAINAIVRSPRGGARRHA (VVH20) [collagen VI derived polypeptide]
microorganisms
  Antimicrobial activity?: Yes

## SFVARNTFKRVRNGFLMRKVAVFFSNTPTRASP (SFV33) [peptide derived from collagen VI alpha-3 chain]
25 ± 2° C./60% RH ± 5%, 0 D
  Appearance: White powder
  Identity (RP-HPLC): Retention Time Conforms
  Impurity (Report all ≥0.10%): RRT = 0.65: 0.17%
  Impurity (Report all ≥0.10%): RRT = 1.02: 0.23%
  No other individual impurity ≥0.50%: conforms
  Purity (RP-HPLC): 98.1%
  Related Impurities (by RRT), Specified Impurity %: RRT = 0.90: 0.26%
  Related Impurities (by RRT), Specified Impurity %: RRT = 0.95: 0.14%
  Related Impurities (by RRT), Specified Impurity %: RRT = 0.97: 0.47%
  Water Content (KF): 4.7%
[1]
  Appearance: White powder
  Identity (RP-HPLC): Retention Time Conforms
  Impurity (Report all ≥0.10%): RRT = 0.66: 0.13%
  Impurity (Report all ≥0.10%): RRT = 0.85: 0.11%
  Impurity (Report all ≥0.10%): RRT = 1.02: 0.31%
  Impurity (Report all ≥0.10%): RRT = 1.04: 0.17%
  Impurity (Report all ≥0.10%): RRT = 1.08: 0.24%
  No other individual impurity ≥0.50%: conforms
  Purity (RP-HPLC): 97.8%
  Related Impurities (by RRT), Specified Impurity %: RRT = 0.90: 0.24%
  Related Impurities (by RRT), Specified Impurity %: RRT = 0.95: 0.13%
  Related Impurities (by RRT), Specified Impurity %: RRT = 0.97: 0.47%
  Water Content (KF): 6.8%
[2]
  Appearance: White powder
  Identity (RP-HPLC): Retention Time Conforms
  Impurity (Report all ≥0.10%): RRT = 0.62: 0.15%
  Impurity (Report all ≥0.10%): RRT = 0.84: 0.28%
  No other individual impurity ≥0.50%: Not conforms *
  Purity (RP-HPLC): 96.9%
  Related Impurities (by RRT), Specified Impurity %: RRT = 0.90: 0.20%
  Related Impurities (by RRT), Specified Impurity %: RRT = 0.95: 0.09%
  Related Impurities (by RRT), Specified Impurity %: RRT = 0.97: 0.42%
  Water Content (KF): 8.4%
Stored at 25° C.
  change in purity during the initial 3 months: slight decrease in purity
Stored at 25° C., at 3 months
  new impurities: some new impurities were detected
Stored at 25° C., over the 3 months
  change of water content: increased
−20 ± 5° C., 0 D
  Appearance: White powder
  Identity (RP-HPLC): Retention Time Conforms
  Impurity (Report all ≥0.10%): RRT = 0.65: 0.17%
  Impurity (Report all ≥0.10%): RRT = 1.02: 0.23%
  No other individual impurity ≥0.50%: conforms
  Purity (RP-HPLC): 98.1%
  Related Impurities (by RRT), Specified Impurity %: RRT = 0.90: 0.26%
  Related Impurities (by RRT), Specified Impurity %: RRT = 0.95: 0.14%
  Related Impurities (by RRT), Specified Impurity %: RRT = 0.97: 0.47%
  Water Content (KF): 4.7%
−20 ± 5° C., 1 month
  Appearance: White powder
  Identity (RP-HPLC): Retention Time Conforms
  Impurity (Report all ≥0.10%): RRT = 1.03: 0.24%
  No other individual impurity ≥0.50%: conforms
  Purity (RP-HPLC): 98.3%
  Related Impurities (by RRT), Specified Impurity %: RRT = 0.90: 0.23%
  Related Impurities (by RRT), Specified Impurity %: RRT = 0.95: 0.10%
  Related Impurities (by RRT), Specified Impurity %: RRT = 0.98: 0.44%
  Water Content (KF): 4.9%
microorganisms
  Antimicrobial activity?: Yes
Wound healing
  Wound healing activity?: No

## VAAKPVATKMAVRPPVAVKP (VAA20) [collagen VI derived polypeptide]
microorganisms
  Antimicrobial activity?: Yes

## QAPVLDAIRRLRLRGGSPLN (QAP20) [collagen VI derived polypeptide]
microorganisms
  Antimicrobial activity?: Yes

## GVRPDGFAHIRDFVSRIVRRLNIGPSKV (GVR28) [peptide derived from collagen VI alpha-3 chain]
25 ± 2° C./60% RH ± 5%, 0 D
  Appearance: White powder
  Identity (RP-HPLC): Retention Time Conforms
  Purity (RP-HPLC): 98.1%
  Related Impurities (by RRT), Specified Impurity %: RRT = 0.80*, RRT = 0.81* Total: 0.07%
  Related Impurities (by RRT), Specified Impurity %: RRT = 0.96*: 0.38%
  Related Impurities (by RRT), Specified Impurity %: RRT = 1.04: 0.56%
  Related Impurities (by RRT), Specified Impurity %: RRT = 1.13*: 0.22%
  Unspecified Impurity % (Report ≥0.10%): RRT = 0.94: 0.15%
  Unspecified Impurity % (Report ≥0.10%): RRT = 1.09: 0.32%
  Unspecified Impurity % ≤0.50%: Conforms
  Water Content (KF): 4.2%
[1]
  Appearance: White powder
  Identity (RP-HPLC): Retention Time Conforms
  Purity (RP-HPLC): 97.7%
  Related Impurities (by RRT), Specified Impurity %: RRT = 0.82*: 0.07%
  Related Impurities (by RRT), Specified Impurity %: RRT = 0.97: 0.40%
  Related Impurities (by RRT), Specified Impurity %: RRT = 1.04: 0.57%
  Related Impurities (by RRT), Specified Impurity %: RRT = 1.12: 0.49%
  Unspecified Impurity % (Report ≥0.10%): RRT = 0.95: 0.16%
  Unspecified Impurity % (Report ≥0.10%): RRT = 1.08: 0.32%
  Unspecified Impurity % ≤0.50%: Conforms
  Water Content (KF): 3.9%
[2]
  Appearance: White powder
  Identity (RP-HPLC): Retention Time Conforms
  Purity (RP-HPLC): 97.3%
  Related Impurities (by RRT), Specified Impurity %: RRT = 0.83*: 0.12%
  Related Impurities (by RRT), Specified Impurity %: RRT = 0.97: 0.41%
  Related Impurities (by RRT), Specified Impurity %: RRT = 1.04: 0.56%
  Related Impurities (by RRT), Specified Impurity %: RRT = 1.12: 0.77%
  Unspecified Impurity % (Report ≥0.10%): RRT = 0.95: 0.17%
  Unspecified Impurity % (Report ≥0.10%): RRT = 1.08: 0.32%
  Unspecified Impurity % ≤0.50%: conforms
  Water Content (KF): 3.9%
Stored at 25° C.
  change in purity during the initial 3 months: slight decrease in purity
−20 ± 5° C., 0 D
  Appearance: White powder
  Identity (RP-HPLC): Retention Time Conforms
  Purity (RP-HPLC): 98.10%
  Related Impurities (by RRT), Specified Impurity %: RRT = 0.80*, RRT = 0.81* Total: 0.07%
  Related Impurities (by RRT), Specified Impurity %: RRT = 0.96*: 0.38%
  Related Impurities (by RRT), Specified Impurity %: RRT = 1.04: 0.56%
  Related Impurities (by RRT), Specified Impurity %: RRT = 1.13*: 0.22%
  Unspecified Impurity % (Report ≥0.10%): RRT = 0.94: 0.15%
  Unspecified Impurity % (Report ≥0.10%): RRT = 1.09: 0.32%
  Unspecified Impurity % ≤0.50%: conforms
  Water Content (KF): 4.2%
−20 ± 5° C., 3 months
  Appearance: White powder
  Identity (RP-HPLC): Retention Time Conforms
  Purity (RP-HPLC): 98.10%
  Related Impurities (by RRT), Specified Impurity %: RRT = 0.83*: 0.04%
  Related Impurities (by RRT), Specified Impurity %: RRT = 0.97: 0.38%
  Related Impurities (by RRT), Specified Impurity %: RRT = 1.04: 0.54%
  Related Impurities (by RRT), Specified Impurity %: RRT = 1.12: 0.20%
  Unspecified Impurity % (Report ≥0.10%): RRT = 0.95: 0.17%
  Unspecified Impurity % (Report ≥0.10%): RRT = 1.08: 0.31%
  Unspecified Impurity % ≤0.50%: conforms
  Water Content (KF): 1.8%
microorganisms
  Antimicrobial activity?: Yes
Wound healing
  Wound healing activity?: have wound healing properties and Yes

## TTKPVTTTKPVTTTTKPVTT (TTK20) [collagen VI derived polypeptide]
microorganisms
  Antimicrobial activity?: Yes

## KPEILNLVKRMKIKTGKALN (KPE20) [collagen VI derived polypeptide]
microorganisms
  Antimicrobial activity?: Yes

## AAKPVATKPEVPRPQAAKPA (AAK20) [collagen VI derived polypeptide]
microorganisms
  Antimicrobial activity?: Yes

## EQNFHKARRFVEQVARRLTL (EQN20) [collagen VI derived polypeptide]
microorganisms
  Antimicrobial activity?: Yes

## FTKRFIDNLRDRYYRCDRNL (FTK20) [collagen VI derived polypeptide]
microorganisms
  Antimicrobial activity?: Yes

## TSSPTSNPVTTTKPVTTTKPVTTTTKPVTTTTKPVT (TSS36) [collagen VI derived polypeptide]
microorganisms
  Antimicrobial activity?: Yes

## RDALKSSVDAVKYFGKGTYT (RDA20) [collagen VI derived polypeptide]
microorganisms
  Antimicrobial activity?: Yes

## TKRFAKRLAERFLTAGRTDP (TKR20) [collagen VI derived polypeptide]
microorganisms
  Antimicrobial activity?: Yes

## LRLKPYGALVDKVKSFTKRF (LRL20) [collagen VI derived polypeptide]
microorganisms
  Antimicrobial activity?: Yes

## GFAHIRDFVSRIVRRLNIGP (GFA20) [collagen VI derived polypeptide]
microorganisms
  Antimicrobial activity?: Yes

## YDRLIKESRRQKTRVFAVVI (YDR20) [collagen VI derived polypeptide]
microorganisms
  Antimicrobial activity?: Yes

## KGFESKVDAILNRISQMHRV (KGF20) [collagen VI derived polypeptide]
microorganisms
  Antimicrobial activity?: Yes

B1: AAAKPAPAKPVAAKPVATKMATVRPPVAVKPATAAKPVAAKPAAVRPPAAAAAKPVATKPEVPRPQAAKPAATKPA (peptide)
chain: AAAKPAPAKPVAAKPVATKMATVRPPVAVKPATAAKPVAAKPAAVRPPAAAAAKPVATKPEVPRPQAAKPAATKPA
modifications: AAA76
notes: collagen VI derived polypeptide
microorganisms
  Antimicrobial activity?: Yes
